This experiment deals with CXCR4 (C-X-C chemokine receptor type 4) (UniProt P61073 1-352, limits assumed). In words: cell-based or functional assay.
CXCR4 (C-X-C chemokine receptor type 4), sequence (P61073 whole entry): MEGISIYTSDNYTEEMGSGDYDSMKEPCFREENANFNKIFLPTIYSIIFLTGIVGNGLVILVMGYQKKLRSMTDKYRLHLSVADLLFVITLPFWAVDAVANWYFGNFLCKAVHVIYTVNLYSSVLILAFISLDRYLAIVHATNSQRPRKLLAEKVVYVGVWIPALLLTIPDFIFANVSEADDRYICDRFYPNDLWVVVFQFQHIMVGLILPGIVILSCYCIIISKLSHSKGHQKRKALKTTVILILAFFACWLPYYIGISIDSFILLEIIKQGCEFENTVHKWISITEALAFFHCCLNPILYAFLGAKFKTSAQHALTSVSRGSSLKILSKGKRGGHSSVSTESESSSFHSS

B1: anti-CXCR4 IgG antibody HLCX (antibody, V domains shown)
VH: QVQLVESGGGLVQPGGSLRLSCAASGFNIKDTYIHWVRQAPGKGLEWVARIYPTNGYTRYADSVKGRFTISADTSKNTAYLQMNSLRAEDTAVYYCSRETKKYQSYRKCRGGRRWCYQKSYTYNYEDYWGQGTLVTVSS
VL: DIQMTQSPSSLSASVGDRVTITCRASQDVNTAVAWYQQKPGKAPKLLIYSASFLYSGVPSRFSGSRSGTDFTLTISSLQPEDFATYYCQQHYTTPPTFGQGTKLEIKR
B1: the “IC50 (nM), cytotoxicity, Ramos (CXCR4+) cells, CellTiter-Glo, 4 days” value (from here on “IC50 (nM), cytotoxicity, Ramos”) is 89.4 nM.

B2: anti-CXCR4-NC-MMAE conjugate (antibody, human IgG1, kappa, V domains shown)
VH: B1 VH
VL: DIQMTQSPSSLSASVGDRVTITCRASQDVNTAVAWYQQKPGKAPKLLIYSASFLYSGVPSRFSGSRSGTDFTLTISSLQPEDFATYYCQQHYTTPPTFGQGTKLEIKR
modifications: MMAE on a non-cleavable linker coupled by NHS ester to surface-exposed lysine residues, non-specific; estimated DAR ~2-3
Regarding B2, the “IC50 (nM), cytotoxicity, Jurkat (CXCR4+) cells, CellTiter-Glo, 4 days” value is 4.6 nM and the “IC50 (nM), cytotoxicity, Ramos” value worked out at 0.89 nM.

B3: anti-CXCR4-ValCit-MMAE conjugate (antibody, human IgG1, kappa, V domains shown)
VH: B1 VH
VL: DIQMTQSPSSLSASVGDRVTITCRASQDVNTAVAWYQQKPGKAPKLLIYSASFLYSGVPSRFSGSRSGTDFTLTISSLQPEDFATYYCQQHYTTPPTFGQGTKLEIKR
modifications: auristatin on a Val-Cit linker coupled by NHS ester to surface-exposed lysine residues, non-specific; estimated DAR ~2-3
For the molecule B3, the “IC50 (nM), cytotoxicity, Jurkat (CXCR4+) cells, CellTiter-Glo, 4 days” value worked out at 9.2 nM and the “IC50 (nM), cytotoxicity, Ramos” value came out at 2 nM.

Source of the values: patent US20170014524A1 (CALIFORNIA INSTITUTE FOR BIOMEDICAL RESEARCH, published 2017).
